First the molecules themselves.
B1: TPTE2 peptide 94-109 (Phosphatidylinositol 3,4,5-trisphosphate 3-phosphatase TPTE2), 16-mer library wild type / TLN1 PTB (TLN1 Phosphotyrosine-binding (PTB) domain, residues 309-401) (parent)
chain 1: DLIFTDSKLYIPLEYR
chain 2: GVSFFLVKEKMKGKNKLVPRLLGITKECVMRVDEKTKEVIQEWNLTNIKRWAASPKSFTLDFGDYQDGYYSVQTTEGEQIAQLIAGYIDIILK
B2: PEX5 peptide 238-253 (Peroxisomal targeting signal 1 receptor), 16-mer library wild type / PEX14 Pex14 (PEX14 PEX14, residues 16-84) (parent)
chain 1: AQAEQWAAEFIQQQGT
chain 2: TPGSENVLPREPLIATAVKFLQNSRVRQSPLATRRAFLKKKGLTDEEIDMAFQQSGTAADEPSSLGPAT

In article PMC12102759 one finds screen value data, which are given here for 94 variants.

The first test covers variants of B1. In words: proteomic peptide phage display deep mutational scan (ProP-PD DMS): M13 P8 16-mer library selected against immobilised GST-tagged bait for four days (rounds), NGS of the eluted pools per day and pseudo-replica. The conditions noted are these: with TLN1 PTB (TLN1 Phosphotyrosine-binding (PTB) domain, residues 309-401); bait immobilised on MaxiSorp plates (10 µg), library pre-cleared on GST, 2 h binding at 4 °C, five washes; one round per day, days 1-4; value from days 2 and 3; keep out of graded; scale: average fractional NGS count over selection days 2 and 3.
Regarding chain 1 DLIFHDSKLYIPLEYR [chain 1 T5H], the screen value turned out to be 5.61e-05.
On the same count and under the same terms, the figure for chain 1 DLIFWDSKLYIPLEYR [chain 1 T5W] is 4.49e-05.
Still for that read-out and setting: the value for chain 1 DLIFDDSKLYIPLEYR [chain 1 T5D] was 0; that for chain 1 DLIFQDSKLYIPLEYR [chain 1 T5Q] was 0.00106; that for chain 1 DLIFEDSKLYIPLEYR [chain 1 T5E] was 0.000584.
The same measure, in the same setting: the figure for chain 1 DLIFNDSKLYIPLEYR [chain 1 T5N] is 0.000128; for chain 1 DLIFTDSELYIPLEYR [chain 1 K8E] it is 0.000109; for chain 1 DLIFTDSSLYIPLEYR [chain 1 K8S] it is 0.00137.
Consider chain 1 DLIFTDSDLYIPLEYR [chain 1 K8D], for which the screen value was 0.00103.
Still for that read-out and setting: the figure for chain 1 DLIFTDSMLYIPLEYR [chain 1 K8M] is 0.000286.
For chain 1 DLIFTDSKLYIPLESR [chain 1 Y15S], the screen value is 0.00054.
Consider chain 1 DLIFTDSKLYIPLENR [chain 1 Y15N], for which the screen value stood at 0.000999.
With chain 1 DLIFTDSKLYIPLEKR [chain 1 Y15K], the screen value stood at 0.000539.
Consider chain 1 DLIFTDSKLYIPLEFR [chain 1 Y15F], for which the screen value amounted to 0.000157.
chain 1 DLIFTDSKLYIPLEMR [chain 1 Y15M]: the screen value was 0.00159.
Regarding chain 1 DLIFTDSKLYIPLEIR [chain 1 Y15I], the screen value came to 0.00364.
For the variant chain 1 DLIFTDSKLYIPLLYR [chain 1 E14L], the screen value worked out at 6.19e-05.
Still for that read-out and setting: the figure for chain 1 DLIFTDSKLYIPLTYR [chain 1 E14T] is 0.000246; for chain 1 DLIFTDSKLYIPLPYR [chain 1 E14P] it is 0.00048; for chain 1 DLIFTDSKLYIPLHYR [chain 1 E14H] it is 9.43e-05.
Consider chain 1 DLIFTDSKLWIPLEYR [chain 1 Y10W], for which the screen value stood at 0.00022.
In the case of chain 1 DLAFTDSKLYIPLEYR [chain 1 I3A], the screen value worked out at 2.4e-05.
On to chain 1 DLHFTDSKLYIPLEYR [chain 1 I3H], for which the screen value came out at 4.16e-05.
On the same count and under the same terms, the figure for chain 1 DLGFTDSKLYIPLEYR [chain 1 I3G] is 0.000109; for chain 1 DLIWTDSKLYIPLEYR [chain 1 F4W] it is 0.00189; for chain 1 DFIFTDSKLYIPLEYR [chain 1 L2F] it is 5.85e-05.
Still for that read-out and setting: the value for chain 1 DIIFTDSKLYIPLEYR [chain 1 L2I] was 0.000173; that for chain 1 DQIFTDSKLYIPLEYR [chain 1 L2Q] was 0.
Turning to chain 1 DWIFTDSKLYIPLEYR [chain 1 L2W], the screen value amounted to 4.75e-05.
On to chain 1 DLIFTDSKMYIPLEYR [chain 1 L9M], for which the screen value is 4.46e-05.
The same measure, in the same setting: the figure for chain 1 DLIFTDSKIYIPLEYR [chain 1 L9I] is 0.000157; for chain 1 DLIFTDSKAYIPLEYR [chain 1 L9A] it is 0.00044.
Still for that read-out and setting: the figure for chain 1 FLIFTDSKLYIPLEYR [chain 1 D1F] is 2.74e-05; for chain 1 QLIFTDSKLYIPLEYR [chain 1 D1Q] it is 3.51e-05.
Same read-out and setting: the value for chain 1 PLIFTDSKLYIPLEYR [chain 1 D1P] was 0.00123.
Regarding chain 1 DLIFTDSKLYMPLEYR [chain 1 I11M], the screen value was 3.76e-05.
Consider chain 1 DLIFTDSKLYDPLEYR [chain 1 I11D], for which the screen value came to 2.74e-05.
Turning to chain 1 DLIFTDSKLYVPLEYR [chain 1 I11V], the screen value stood at 0.0012.
The same measure, in the same setting: the value for chain 1 DLIFTDSKLYIPKEYR [chain 1 L13K] was 0.00129; that for chain 1 DLIFTDSKLYIPHEYR [chain 1 L13H] was 2.74e-05.
On the same count and under the same terms, the figure for chain 1 DLIFTDSKLYIPMEYR [chain 1 L13M] is 0.00103.
On the same count and under the same terms, the value for chain 1 DLIFTDSKLYIPEEYR [chain 1 L13E] was 5.82e-05; that for chain 1 DLIFTDSKLYIPQEYR [chain 1 L13Q] was 0.000253; that for chain 1 DLIFTGSKLYIPLEYR [chain 1 D6G] was 0.
Turning to chain 1 DLIFTHSKLYIPLEYR [chain 1 D6H], the screen value came out at 3.45e-05.
The same measure, in the same setting: the figure for chain 1 DLIFTASKLYIPLEYR [chain 1 D6A] is 3.11e-05; for chain 1 DLIFTNSKLYIPLEYR [chain 1 D6N] it is 6.84e-05; for chain 1 DLIFTYSKLYIPLEYR [chain 1 D6Y] it is 3.05e-05.

In the next test the parent is B2. The test is described as above. The conditions noted are these: with PEX14 Pex14 (PEX14 PEX14, residues 16-84); bait immobilised on MaxiSorp plates (10 µg), library pre-cleared on GST, 2 h binding at 4 °C, five washes; one round per day, days 1-4; value from days 2 and 3; keep out of graded; scale: average fractional NGS count over selection days 2 and 3.
Consider chain 1 AQAEQWAAEFIQQQGN [chain 1 T16N], for which the screen value came to 0.000881.
With chain 1 AQAEQWAAEFIQQQGH [chain 1 T16H], the screen value was 0.00132.
In the case of chain 1 AQAEQWAAEFIQQQGQ [chain 1 T16Q], the screen value stood at 0.00068.
Consider chain 1 AQAEQWAAEFIQQQGM [chain 1 T16M], for which the screen value was 0.000253.
Consider chain 1 AQAEQWAAEFIQQQGE [chain 1 T16E], for which the screen value was determined as 0.
Same read-out and setting: the figure for chain 1 AQAEQWAAEFIQQQGP [chain 1 T16P] is 0.000382; for chain 1 AQAEQWAAEFIQQQGD [chain 1 T16D] it is 0.000181.
On the same count and under the same terms, the figure for chain 1 AQAEQWAAEFIQQQGW [chain 1 T16W] is 0.00013; for chain 1 AQAEQWAAEFIQQQGL [chain 1 T16L] it is 0.000704.
Turning to chain 1 AQAEQWAAEFIQQQGS [chain 1 T16S], the screen value was 0.000223.
As to chain 1 AQAEQWAAEFIQQQGG [chain 1 T16G], the screen value was determined as 0.
In the case of chain 1 AQAEQWAAEFIQQQGV [chain 1 T16V], the screen value amounted to 0.00206.
Still for that read-out and setting: the figure for chain 1 AQAEQWAAEFIQQQGA [chain 1 T16A] is 0.000218; for chain 1 AQAEQFAAEFIQQQGT [chain 1 W6F] it is 0.000898; for chain 1 AQAEQLAAEFIQQQGT [chain 1 W6L] it is 0.
For the variant chain 1 AQAEQWAAEFIWQQGT [chain 1 Q12W], the screen value was determined as 0.000355.
Still for that read-out and setting: the value for chain 1 AQAEQWAAEFITQQGT [chain 1 Q12T] was 0.000592.
Consider chain 1 AQAEQWAAEFISQQGT [chain 1 Q12S], for which the screen value came out at 0.00055.
The same measure, in the same setting: the value for chain 1 AQAEQWAAEFIRQQGT [chain 1 Q12R] was 0.
The same measure, in the same setting: the value for chain 1 AQAEQWAAEFIPQQGT [chain 1 Q12P] was 0.000699; that for chain 1 AQAEQWAAEFIVQQGT [chain 1 Q12V] was 0.000188; that for chain 1 AQAEQWAAEFIMQQGT [chain 1 Q12M] was 0.00226.
Regarding chain 1 AQAEQWAAEFIQTQGT [chain 1 Q13T], the screen value was 0.000335.
In the case of chain 1 AQAEQWAAEFIQYQGT [chain 1 Q13Y], the screen value came out at 0.000125.
As to chain 1 AQAEQWAAEFIQGQGT [chain 1 Q13G], the screen value worked out at 0.000627.
chain 1 AQAEQWAAEFIQLQGT [chain 1 Q13L]: the screen value worked out at 0.00111.
On the same count and under the same terms, the figure for chain 1 AQAEQWAAEFIQRQGT [chain 1 Q13R] is 0.00284; for chain 1 AQAEQWAAEFIQAQGT [chain 1 Q13A] it is 0.00172.
Same read-out and setting: the figure for chain 1 AQAEQWAAEFIQKQGT [chain 1 Q13K] is 0; for chain 1 AQAEQWAAEFIQHQGT [chain 1 Q13H] it is 0.
Still for that read-out and setting: the figure for chain 1 AQAEQWAAEFIQSQGT [chain 1 Q13S] is 0.
Take chain 1 AQAEQWAAEFIQDQGT [chain 1 Q13D]: the screen value was determined as 0.000183.
Same read-out and setting: the value for chain 1 AQAEQWAAEFIQFQGT [chain 1 Q13F] was 0.000134; that for chain 1 AQAEQWAAEFIQMQGT [chain 1 Q13M] was 0.000454; that for chain 1 AQAEQWAAEFIQQDGT [chain 1 Q14D] was 0.000186.
The same measure, in the same setting: the value for chain 1 AQAEQWAAEFIQQFGT [chain 1 Q14F] was 0.000215.
The same measure, in the same setting: the figure for chain 1 AQAEQWAAEFIQQWGT [chain 1 Q14W] is 0.000797; for chain 1 AQAEQWAAEFIQQTGT [chain 1 Q14T] it is 0.
As to chain 1 AQAEQWAAEFIQQKGT [chain 1 Q14K], the screen value was 0.
Still for that read-out and setting: the figure for chain 1 AQAEQWAAEFIQQRGT [chain 1 Q14R] is 0.0013; for chain 1 AQAEQWAAEFIQQVGT [chain 1 Q14V] it is 0.000266.
On the same count and under the same terms, the value for chain 1 AQAEQWAAEFIQQHGT [chain 1 Q14H] was 0.000732.
On the same count and under the same terms, the value for chain 1 AQAEQWAAEFIQQEGT [chain 1 Q14E] was 0; that for chain 1 AQAEQWAAEFIQQSGT [chain 1 Q14S] was 0.00134.
In the case of chain 1 AQAEQWAAEFIQQIGT [chain 1 Q14I], the screen value was found to be 0.00105.
For chain 1 AQAEQWAAEFIQQGGT [chain 1 Q14G], the screen value was 0.00214.
